Columns and labels:
Compound 112 = tested on: T1, Compound 112
T1 sequence: WNLVRIGLTR

Compound 26 = tested on: T2, Compound 26
T2 sequence: SGCFIPWNLQRIGLLC

Compound 29 = tested on: T3, Compound 29
T3 sequence: SGCFIPWNLQRIGLLC

Pep2-8 = tested on: T4, Pep2-8
T4 sequence: TVFTSWEEYLDWV

PCSK9-R167A:R215A:R218A
FXIa cleavage of the P′ helix (immunoblot) (Compound 112): able to increase the FXIa-mediated cleavage of the P′ helix at R160-I161 in a similar fashion as shown for Fab33
FXIa cleavage of the P′ helix (immunoblot) (Compound 26): accelerated the cleavage reaction, leading to almost complete cleavage of the P′ helix
FXIa cleavage of the P′ helix (immunoblot) (Compound 29): accelerated the cleavage reaction, leading to almost complete cleavage of the P′ helix
FXIa cleavage of the P′ helix (immunoblot) (Pep2-8): largely prevented cleavage of the P′ helix by FXIa

Source: US20200283478
